According to the MegaScale stability set (Tsuboyama et al. 2023):

B1: 6YSE (parent)
chain: HERALMVNRLQKLTRMLRVHPDPKWKQEQQELIKRLK

Variants of: B1
Test: folding stability dG (cDNA display proteolysis); higher = more stable
Conditions: PBS, room temperature
For HERALMVNRLQKLTRMLRVHPDPKWKQEQQELIKRLV, the “folding stability dG” value was 0.95 kcal/mol.
In the case of HERALMVNRLQKLTRMLRVHPDPKWKQEQQELIKRLI, the “folding stability dG” value is reported as 1.08 kcal/mol.
With HERALMVNRLQKLTRMLRVHPDPKWKQEQQELILRLK the “folding stability dG” value was 1.15 kcal/mol.
With HERALMVNRLQKLTRMLRVHPDPKWKQEQQELIARLK the “folding stability dG” value was 1.37 kcal/mol.
In the case of HERALMVNRLQKLTRMLRVHPDPKWKQEQQELIRRLK, the “folding stability dG” value is reported as 1.51 kcal/mol.
For HERALMVNRLQKLTRMLRVHPDPKWKQEQQELIVRLK, the “folding stability dG” value was 1.03 kcal/mol.
For HERALMVNRLQKLTRMLRVHPDPKWKQEQQELIERLK, the “folding stability dG” value was 1.14 kcal/mol.
With HERALMVNRLQKLTRMLRVHPDPKWKQEQQELIMRLK the “folding stability dG” value was 1.34 kcal/mol.
For HERALMVNRLQKLTDMLRVHPDPKWKQEQQELIKRLK, the “folding stability dG” value was 1.01 kcal/mol.
For HERALMVNRLQKLTHMLRVHPDPKWKQEQQELIKRLK, the “folding stability dG” value was 1.12 kcal/mol.
In the case of HERALMVNRLQKLTNMLRVHPDPKWKQEQQELIKRLK, the “folding stability dG” value is reported as 1 kcal/mol.
With HERALMVNRLQKLTWMLRVHPDPKWKQEQQELIKRLK the “folding stability dG” value was 0.914 kcal/mol.
With HERALMVNRLCKLTRMLRVHPDPKWKQEQQELIKRLK the “folding stability dG” value was 2.24 kcal/mol.
For HERALMVNRLTKLTRMLRVHPDPKWKQEQQELIKRLK, the “folding stability dG” value was 1.09 kcal/mol.
In the case of HERALMVNRLFKLTRMLRVHPDPKWKQEQQELIKRLK, the “folding stability dG” value is reported as 1.23 kcal/mol.
With HERALMVNRLKKLTRMLRVHPDPKWKQEQQELIKRLK the “folding stability dG” value was 2.12 kcal/mol.
In the case of HERALMVNRLGKLTRMLRVHPDPKWKQEQQELIKRLK, the “folding stability dG” value is reported as 0.69 kcal/mol.
In the case of HERALMVNRLEKLTRMLRVHPDPKWKQEQQELIKRLK, the “folding stability dG” value is reported as 1.08 kcal/mol.
In the case of HERALMVTRLQKLTRMLRVHPDPKWKQEQQELIKRLK, the “folding stability dG” value is reported as 1.92 kcal/mol.
With HERALMVWRLQKLTRMLRVHPDPKWKQEQQELIKRLK the “folding stability dG” value was 1.34 kcal/mol.
For HERALMVNRLQKLTRMLRVHPDPKWKQEQQELIKRIK, the “folding stability dG” value was 0.873 kcal/mol.
For HERALMVNRLQKLTRMLRVHPDPKWKQEQQELIKRYK, the “folding stability dG” value was -0.212 kcal/mol.
For HERALMVNRLQKLTRMLRVHPDPKWKQEQQELIKRRK, the “folding stability dG” value was -0.888 kcal/mol.
In the case of HERALMVNRLQKLTRMLRVHPDPKKKQEQQELIKRLK, the “folding stability dG” value is reported as 0.636 kcal/mol.
With HERALMVNRLQKLTRMLRVHPDPKSKQEQQELIKRLK the “folding stability dG” value was 0.206 kcal/mol.
In the case of HERALMVNRLQKLTRMLRVHPDPKVKQEQQELIKRLK, the “folding stability dG” value is reported as 1.22 kcal/mol.
With HERALMVNRLQKLTRMLRVHPDPKAKQEQQELIKRLK the “folding stability dG” value was 0.973 kcal/mol.
With HERALMVNRLQKLTRMLRVHPDPKHKQEQQELIKRLK the “folding stability dG” value was 0.686 kcal/mol.
For HERALMVNRLQKLTRLLRVHPDPKWKQEQQELIKRLK, the “folding stability dG” value was 1.35 kcal/mol.
With HERATMVNRLQKLTRMLRVHPDPKWKQEQQELIKRLK the “folding stability dG” value was 1.27 kcal/mol.
With HERAPMVNRLQKLTRMLRVHPDPKWKQEQQELIKRLK the “folding stability dG” value was -0.071 kcal/mol.
For HERAHMVNRLQKLTRMLRVHPDPKWKQEQQELIKRLK, the “folding stability dG” value was 1.61 kcal/mol.
In the case of HERALAVNRLQKLTRMLRVHPDPKWKQEQQELIKRLK, the “folding stability dG” value is reported as 0.574 kcal/mol.
For HERALEVNRLQKLTRMLRVHPDPKWKQEQQELIKRLK, the “folding stability dG” value was 0.023 kcal/mol.
For HERALKVNRLQKLTRMLRVHPDPKWKQEQQELIKRLK, the “folding stability dG” value was -0.045 kcal/mol.
For HERALMVNRLQKLTRMLRVHPDPKWKQEQQELRKRLK, the “folding stability dG” value was 0.898 kcal/mol.
For HERALMVNRLQKLTRMLRVHPDPKWKQEQQELSKRLK, the “folding stability dG” value was -0.232 kcal/mol.
For HERALMVNRLQGLTRMLRVHPDPKWKQEQQELIKRLK, the “folding stability dG” value was -0.272 kcal/mol.
In the case of HERALMVNRLQFLTRMLRVHPDPKWKQEQQELIKRLK, the “folding stability dG” value is reported as 2.26 kcal/mol.
For HERALMVNRLQMLTRMLRVHPDPKWKQEQQELIKRLK, the “folding stability dG” value was 1.49 kcal/mol.
In the case of HERALMVNRLQVLTRMLRVHPDPKWKQEQQELIKRLK, the “folding stability dG” value is reported as 1.43 kcal/mol.
For HERALMVNRLQSLTRMLRVHPDPKWKQEQQELIKRLK, the “folding stability dG” value was 0.811 kcal/mol.
For HERALMVNRLQALTRMLRVHPDPKWKQEQQELIKRLK, the “folding stability dG” value was 1.36 kcal/mol.
For HFRALMVNRLQKLTRMLRVHPDPKWKQEQQELIKRLK, the “folding stability dG” value was 1.27 kcal/mol.
In the case of HYRALMVNRLQKLTRMLRVHPDPKWKQEQQELIKRLK, the “folding stability dG” value is reported as 1.32 kcal/mol.
In the case of HKRALMVNRLQKLTRMLRVHPDPKWKQEQQELIKRLK, the “folding stability dG” value is reported as 1.15 kcal/mol.
With HWRALMVNRLQKLTRMLRVHPDPKWKQEQQELIKRLK the “folding stability dG” value was 1.65 kcal/mol.
With HIRALMVNRLQKLTRMLRVHPDPKWKQEQQELIKRLK the “folding stability dG” value was 1.4 kcal/mol.
For HGRALMVNRLQKLTRMLRVHPDPKWKQEQQELIKRLK, the “folding stability dG” value was 0.782 kcal/mol.
For HERALMVNRLQKLTRMLRVHNDPKWKQEQQELIKRLK, the “folding stability dG” value was 1.51 kcal/mol.
In the case of HERALMVNRLQKLTRMLRVHMDPKWKQEQQELIKRLK, the “folding stability dG” value is reported as 1.13 kcal/mol.
For HERALMVNRLQKLTRMLRVHDDPKWKQEQQELIKRLK, the “folding stability dG” value was 1.37 kcal/mol.
In the case of HERALMVNRLQKLTRMLRVHPDPKWKQRQQELIKRLK, the “folding stability dG” value is reported as -0.089 kcal/mol.
For HERALMVNRLQKLTRMLRVHPDPKWKQEHQELIKRLK, the “folding stability dG” value was 0.663 kcal/mol.
With HERALMVNRLQKLTRMLRVHPDPKWKQEDQELIKRLK the “folding stability dG” value was -0.859 kcal/mol.
With HERALMVNRLQKLTRMLRVHPDPKWKQECQELIKRLK the “folding stability dG” value was 1.52 kcal/mol.
In the case of HERALMVNRLQKLTRMLRVHPDPKWKQERQELIKRLK, the “folding stability dG” value is reported as 1.47 kcal/mol.
In the case of HERALMVNRLQKLTRMLRVHPDPKWKQEQQEMIKRLK, the “folding stability dG” value is reported as -0.196 kcal/mol.
For HERALMVNRLQKLTRMLRVHPDPKWKQEQQEWIKRLK, the “folding stability dG” value was -0.364 kcal/mol.
With HEHALMVNRLQKLTRMLRVHPDPKWKQEQQELIKRLK the “folding stability dG” value was 1.18 kcal/mol.
In the case of HEFALMVNRLQKLTRMLRVHPDPKWKQEQQELIKRLK, the “folding stability dG” value is reported as 1.66 kcal/mol.
In the case of HERALMDNRLQKLTRMLRVHPDPKWKQEQQELIKRLK, the “folding stability dG” value is reported as -0.144 kcal/mol.
In the case of HERALMQNRLQKLTRMLRVHPDPKWKQEQQELIKRLK, the “folding stability dG” value is reported as 1.03 kcal/mol.
In the case of HERALMYNRLQKLTRMLRVHPDPKWKQEQQELIKRLK, the “folding stability dG” value is reported as 1.67 kcal/mol.
For HERALMGNRLQKLTRMLRVHPDPKWKQEQQELIKRLK, the “folding stability dG” value was 0.569 kcal/mol.
With HERALMKNRLQKLTRMLRVHPDPKWKQEQQELIKRLK the “folding stability dG” value was 1.05 kcal/mol.
In the case of HERALMVNRVQKLTRMLRVHPDPKWKQEQQELIKRLK, the “folding stability dG” value is reported as 0.163 kcal/mol.
